Assay results taken from paper PMC10229567.

Biological target: LOXL3 (UniProt P58215)
Assay: Co-IP of LOXL3 with LOXL3
Conditions: reference: wild type; sites S704

UniProt P58215, sequence (P58215 whole entry S704A): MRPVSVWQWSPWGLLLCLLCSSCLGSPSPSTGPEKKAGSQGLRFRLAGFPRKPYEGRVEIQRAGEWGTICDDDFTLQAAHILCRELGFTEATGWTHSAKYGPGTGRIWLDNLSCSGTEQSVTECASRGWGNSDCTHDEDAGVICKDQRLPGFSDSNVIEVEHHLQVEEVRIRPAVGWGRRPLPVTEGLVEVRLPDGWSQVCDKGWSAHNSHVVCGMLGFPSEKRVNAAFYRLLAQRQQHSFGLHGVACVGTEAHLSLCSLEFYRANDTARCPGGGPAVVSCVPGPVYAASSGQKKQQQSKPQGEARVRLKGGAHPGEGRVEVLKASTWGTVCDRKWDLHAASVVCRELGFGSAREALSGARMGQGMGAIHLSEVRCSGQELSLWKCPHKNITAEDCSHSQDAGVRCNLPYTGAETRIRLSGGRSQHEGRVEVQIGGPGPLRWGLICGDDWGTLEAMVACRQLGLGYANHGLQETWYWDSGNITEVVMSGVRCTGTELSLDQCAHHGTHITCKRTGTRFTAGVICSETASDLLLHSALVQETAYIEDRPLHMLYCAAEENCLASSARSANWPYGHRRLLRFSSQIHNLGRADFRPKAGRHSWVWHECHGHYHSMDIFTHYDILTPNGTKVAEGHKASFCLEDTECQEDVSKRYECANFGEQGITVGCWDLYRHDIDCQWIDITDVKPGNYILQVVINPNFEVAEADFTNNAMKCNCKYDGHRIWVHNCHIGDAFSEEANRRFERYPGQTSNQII

- binding against the reference: weaker
Substance: LOXL3 (from UniProt P58215) S704A
